Measurements from patent publication US20240076386A1 (Pfizer, published 2024).

T1: free soluble human E-selectin in human serum (human, UniProt P16581 22-556, limits assumed)
T1 construct: also called endogenous human E-selectin
T1 sequence (looked up): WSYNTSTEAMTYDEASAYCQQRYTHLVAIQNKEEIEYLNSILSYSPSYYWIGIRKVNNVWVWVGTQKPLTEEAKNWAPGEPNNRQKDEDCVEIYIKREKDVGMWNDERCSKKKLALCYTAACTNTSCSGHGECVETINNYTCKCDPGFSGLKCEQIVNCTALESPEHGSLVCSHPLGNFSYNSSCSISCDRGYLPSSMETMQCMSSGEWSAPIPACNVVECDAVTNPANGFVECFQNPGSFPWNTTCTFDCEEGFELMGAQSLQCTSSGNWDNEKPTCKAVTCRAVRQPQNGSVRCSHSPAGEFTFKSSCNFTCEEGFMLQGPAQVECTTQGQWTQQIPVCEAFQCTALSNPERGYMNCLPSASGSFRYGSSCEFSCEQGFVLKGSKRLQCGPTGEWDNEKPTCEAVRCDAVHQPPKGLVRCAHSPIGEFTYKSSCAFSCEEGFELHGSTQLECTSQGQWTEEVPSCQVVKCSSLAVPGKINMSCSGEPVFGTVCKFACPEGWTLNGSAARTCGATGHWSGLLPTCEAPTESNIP

T2: human E-selectin extracellular domain with 10 His purification tail (human, UniProt P16581 22-556)
T2 construct: also called soluable human E-selectin extracellular domain; rhE-Selectin
T2 sequence: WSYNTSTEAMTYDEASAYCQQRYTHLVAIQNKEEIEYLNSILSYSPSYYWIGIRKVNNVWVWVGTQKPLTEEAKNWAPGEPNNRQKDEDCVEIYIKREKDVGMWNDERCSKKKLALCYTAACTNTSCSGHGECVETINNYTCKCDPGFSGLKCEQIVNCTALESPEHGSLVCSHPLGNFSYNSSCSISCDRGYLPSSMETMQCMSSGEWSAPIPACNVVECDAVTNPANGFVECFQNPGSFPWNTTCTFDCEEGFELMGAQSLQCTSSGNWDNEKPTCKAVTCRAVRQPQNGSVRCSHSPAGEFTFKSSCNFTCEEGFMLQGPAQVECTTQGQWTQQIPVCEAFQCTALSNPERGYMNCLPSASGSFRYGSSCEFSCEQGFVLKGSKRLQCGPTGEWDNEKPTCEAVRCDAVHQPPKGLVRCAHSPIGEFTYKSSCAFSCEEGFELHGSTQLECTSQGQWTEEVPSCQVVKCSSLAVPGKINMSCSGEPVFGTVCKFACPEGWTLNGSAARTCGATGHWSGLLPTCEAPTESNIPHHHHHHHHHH

B1: optimized anti-E-selectin antibody 1282 (antibody, human IgG1, kappa, V domains shown)
VH: EVQLVESGGGLVQPGGSLRLSCAASGYAIRSAYMHWVRQAPGKGLEWVARIDPANGNTIYVDSVEGRFTISADNAKNSAYLQMNSLRAEDTAVYYCAMDLYSTSEYWGQGTLVTVSS
VL: DIQMTQSPSSLSASVGDRVTITCKTSQNIERYLNWYQQKPGKAPKLLIYAASSLQSGVPSRFSGSGSGTDFTLTISSLQPEDFATYFCLQDNAWPLTFGQGTKVEIKR
notes: effector-null human IgG1, kappa
B2: optimized anti-E-selectin antibody 1284 (antibody, human IgG1, kappa, V domains shown)
VH: EVQLVESGGGLVQPGGSLRLSCAASGYAIRSAYMHWVRQAPGKGLEWVARIDPANGNTIYVESVEGRFTISADNAKNSAYLQMNSLRAEDTAVYYCAMDLYSTSEYWGQGTLVTVSS
VL: DIQMTQSPSSLSASVGDRVTITCKTSQNIERYLNWYQQKPGKAPKLLIYAASSLQSGVPSRFSGSGSGTDFTLTISSLQPEDFATYFCLQDNAWPLTFGQGTKVEIKR
notes: as for B1
B3: optimized anti-E-selectin antibody 1444 (antibody, human IgG1, kappa, V domains shown)
VH: EVQLVESGGGLVQPGGSLRLSCAASGYAIRSAYMHWVRQAPGKGLEWVARIDPANGNTIYVDSVTGRFTISADNAKNSAYLQMNSLRAEDTAVYYCAMDLYSTSEYWGQGTLVTVSS
VL: DIQMTQSPSSLSASVGDRVTITCKTSQNIERYLNWYQQKPGKAPKLLIYAASSLQSGVPSRFSGSGSGTDFTLTISSLQPEDFATYFCLQDNAWPLTFGQGTKVEIKR
notes: as for B1
B4: optimized anti-E-selectin antibody 1448 (antibody, human IgG1, kappa, V domains shown)
VH: EVQLVESGGGLVQPGGSLRLSCAASGYAIRSAYMHWVRQAPGKGLEWVARIDPANGNTIYVDSVKERFTISADNAKNSAYLQMNSLRAEDTAVYYCAMDLYSTSEYWGQGTLVTVSS
VL: DIQMTQSPSSLSASVGDRVTITCKTSQNIERYLNWYQQKPGKAPKLLIYAASSLQSGVPSRFSGSGSGTDFTLTISSLQPEDFATYFCLQDNAWPLTFGQGTKVEIKR
notes: as for B1

How the values were obtained:
[1] = target: T1, free soluble human E-selectin in human …; test: IP-LC/MS/MS of free soluble E-selectin in human serum, capture by biotinylated 0164
Protocol: This method quantified free soluble human E-selectin in human serum or free soluble monkey E-selectin in cynomolgus monkey serum. The method used 50 μL of serum in 250 μL of PBS which was incubated overnight at 4° C. […] After incubation, 30 μL of Invitrogen T1 streptavidin magnetic beads were added to each sample followed by incubation for 40 minutes at room temperature (shaking at 1000 rpm). Using a Hamilton Microlabstar, the magnetic beads were then washed two times with PBS/0.05% Tween-20 followed by one wash with PBS. Soluble E-selectin was then eluted from the beads with 145 μL of 30 mM hydrochloric acid (HCl) and neutralized with 32 μL of 1 M Tris HCl, pH 8. Subsequently 50 fmol of stable isotope labeled (SIL) internal standard was added, followed by the addition of dithiothreitol (DTT, 10 μL×50 mM). After incubating 35 minutes at 60° C. the samples were allowed to cool to room temperature prior to the addition of iodoacetamide (IAA, 10 μL×100 mM). Samples were then placed in the dark for 30 minutes to which 1 μg of Promega LysC/trypsin (10 μL×100 […]) was added and then digested overnight at 37° C.
After overnight incubation, 50 μL of prepared sample was injected onto the nano ESILC-MS/MS.

[2] = target: T2, human E-selectin extracellular domain …; test: SPR, antibody captured, E-selectin analyte
Protocol: All flow cells were blocked with 1M Ethanolamine-HCl (ETH) for 7 minutes at 10 μL/minute. Final immobilization level of the capture antibody was approximately 10,000 resonance units (RU). The running buffer for immobilization and kinetics was HBS-EP+(10 mM 4-(2-hydroxyethyl)-1-piperazineethanesulfonic acid (HEPES) pH 7.4, 150 mM sodium chloride, 3 mM ethylenediaminetetraacetic acid (EDTA), 0.05% (v/v) Tween-20).
To characterize binding of antibodies to human, cynomolgus monkey, and mouse E-selectin, an antibody was diluted to 0.5 μg/mL in HBS-EP+ and captured by the anti-human IgG immobilized on flow cells 2, 3 and 4 for 30 seconds to 1 minute at a flow rate of 10 μL/minute to achieve a capture level of 70 to 300 RU. Flow cell 1 was used as a reference surface. […] HBS-EP+ buffer cycles collected for each captured antibody were used for double-referencing (Myszka D G. J. Mol. Recognition 1999; 12(5):279-84). At the end of each cycle, the entire anti-IgG surface was regenerated by a 30 second pulse of 3 M MgCl₂ and a 30 second pulse of ionic buffer (1.83 M MgCl₂, 0.92 M Urea, 1.83 M Guanidine HCl, pH 7.4) (Andersson K. Analy. Chem. 1999; 71(13): 2475-81). Kinetic assays were conducted at 25° C. at a collection rate of 10 Hertz (Hz) on a BIAcore™ T200 instrument (GE Healthcare). Rate constants and affinities were determined by fitting the data to a 1:1 binding model in BIAcore™ T200 Evaluation software version 3.0 (GE Healthcare).
This was done by first binding the antibody to immobilized anti-human IgG. After antibody capture, dilutions of the E-selectin proteins were flowed over and the association rate constant (ka), disassociation rate constant (kd), t½, and KD values were determined for binding to human and cynomolgus (Table 26).

IC50 [1] [nM]	IC90 [1] [nM]	Kd [2] [nM]	koff [2] [s⁻¹]	kon [2] [M⁻¹ s⁻¹]	t½ [2] [s]	Binder
2.4	4.9	70.3	0.0141	201000	49.3	B1
1.1	4.8	65.2	0.0145	222000	48	B2
1.2	6.5	61.8	0.0163	264000	42.7	B3
1.8	8.6	60.5	0.0126	210000	55	B4
